From publication PMC2572630

target: Flag-tagged mR3-3 c-Myb (chicken) (UniProt P01103); assay: protein chromatin immunoprecipitation (PChIP); 293T cells fixed with 1% formaldehyde, lysate sonicated to chromatin fragments of 100-300 bp, anti-Flag M2 agarose, washes up to 500 mM NaCl and 500 mM LiCl, histones detected by western blot
Chain of UniProt P01103 (P01103 other isoform, or with tags, fused parts or gaps): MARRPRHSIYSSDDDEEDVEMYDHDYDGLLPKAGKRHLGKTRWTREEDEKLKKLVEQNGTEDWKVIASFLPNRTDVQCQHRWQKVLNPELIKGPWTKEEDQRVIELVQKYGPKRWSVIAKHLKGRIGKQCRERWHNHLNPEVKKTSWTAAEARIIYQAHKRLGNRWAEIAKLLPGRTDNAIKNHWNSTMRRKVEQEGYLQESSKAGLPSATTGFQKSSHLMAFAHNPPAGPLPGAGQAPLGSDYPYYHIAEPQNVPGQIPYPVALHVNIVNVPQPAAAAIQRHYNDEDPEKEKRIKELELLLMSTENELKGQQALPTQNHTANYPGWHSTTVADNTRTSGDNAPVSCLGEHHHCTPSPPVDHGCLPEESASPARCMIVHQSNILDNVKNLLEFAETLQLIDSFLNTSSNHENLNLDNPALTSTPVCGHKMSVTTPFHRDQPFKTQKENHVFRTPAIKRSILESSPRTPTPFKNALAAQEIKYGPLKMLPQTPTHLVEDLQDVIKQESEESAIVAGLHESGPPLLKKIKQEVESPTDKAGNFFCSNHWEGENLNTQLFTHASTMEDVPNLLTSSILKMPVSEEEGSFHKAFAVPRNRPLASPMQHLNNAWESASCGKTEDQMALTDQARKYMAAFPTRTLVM

Percent decrease in association against wild-type c-Myb, 50%:
histone H2A (from UniProt P0C0S8 1-130) (natural protein)
histone H3 (from UniProt P68431 1-136) (natural protein)
histone H4 (from UniProt P62805 1-103) (natural protein)
